Results published in patent EP2130555A1.

Legend:
[1] = biological target: hexahistidine-tagged bacterial gyrase subunit B (GyrB) of E. coli (E. coli) (UniProt P0AES6); assay: cell-based or functional assay
[2] = biological target: hexahistidine-tagged bacterial gyrase subunit B (GyrB) of E. coli (E. coli) (UniProt P0AES6); assay: ultrafiltration through a 50 kDa cut-off filter, with coumermycin (GyrB : coumermycin = 2:1; dimer is held back)
[3] = biological target: hexahistidine-tagged bacterial gyrase subunit B (GyrB) of E. coli (E. coli) (UniProt P0AES6); assay: ultrafiltration through a 50 kDa cut-off filter, without coumermycin (monomer passes the filter)

hexahistidine-tagged bacterial gyrase subunit B (GyrB) of E. coli (from UniProt P0AES6 1-220) (enzyme)
hydrogel dissolution in PBS with 1 mM novobiocin, followed by release of GyrB-polymer complexes into the buffer [1]: 11 h
stability of hydrogels with DMS-crosslinked GyrB dimers in PBS with 1 mM novobiocin [1]: 31 h
% of protein in filtrate [2]: 2.8%
% of protein in filtrate [3]: 54%
